Experiments:
GBX2ΔHD = GBX2ΔHD (mouse, UniProt P48031 1-94); assay: EMSA; 940 pM probe, 720 nM GBX2; 2X binding buffer: 20 mM Tris-HCl pH 7.4, 50 mM KCl, 1 mM DTT, 10% glycerol, 200 ug/mL BSA, 2.2 ug/mL poly dI/dC; 30 min, 25 C; 6% native PAGE, Tris-glycine; settings: protein: recombinant; tags: V5-6xHis (pET101/D-TOPO); label: 32P end label; blunt
GBX2 full-length = GBX2 full-length (mouse, UniProt P48031 1-348); assay: EMSA; supershift with anti-GBX2; 940 pM probe, 720 nM GBX2; 2X binding buffer: 20 mM Tris-HCl pH 7.4, 50 mM KCl, 1 mM DTT, 10% glycerol, 200 ug/mL BSA, 2.2 ug/mL poly dI/dC; 30 min, 25 C; 6% native PAGE, Tris-glycine; settings: protein: recombinant; tags: V5-6xHis (pET101/D-TOPO); label: 32P end label; blunt
Chain of GBX2 full-length (P48031 whole entry): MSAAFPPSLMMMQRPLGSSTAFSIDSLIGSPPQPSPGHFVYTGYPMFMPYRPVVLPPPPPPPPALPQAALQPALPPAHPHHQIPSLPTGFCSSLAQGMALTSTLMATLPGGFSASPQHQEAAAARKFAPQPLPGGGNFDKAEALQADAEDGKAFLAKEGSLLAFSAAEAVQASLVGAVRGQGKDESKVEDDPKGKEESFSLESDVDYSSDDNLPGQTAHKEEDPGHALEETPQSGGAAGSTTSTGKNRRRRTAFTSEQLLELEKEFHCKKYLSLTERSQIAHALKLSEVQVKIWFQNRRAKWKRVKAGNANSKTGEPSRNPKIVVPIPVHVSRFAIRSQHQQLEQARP

Chain of GBX2ΔHD (P48031 1-94, stated change not applied): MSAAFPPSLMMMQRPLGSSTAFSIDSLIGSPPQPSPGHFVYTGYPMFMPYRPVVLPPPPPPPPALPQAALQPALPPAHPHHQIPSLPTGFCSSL

B1: PCDH15 100-mer probe (dsDNA)
DNA 1: TTACAATTTCATTTGTACAGGTAAGTATATACTTTTCTTTCATTGTTTCTTTTTAATATTCCCATTAGTGGGAATTCAGGCTATCTGTCTCTTACCTATC
DNA 2: GATAGGTAAGAGACAGATAGCCTGAATTCCCACTAATGGGAATATTAAAAAGAAACAATGAAAGAAAAGTATATACTTACCTGTACAAATGAAATTGTAA
B1: no binding (GBX2ΔHD); binds (GBX2 full-length).

Reference: paper PMC3493575, “Elongation Factor 1 alpha1 and Genes Associated with Usher Syndromes Are Downstream Targets of GBX2”
